Results taken from publication PMC7611338 (Current biology : CB, 2021).

Target: the molecule itself
Test: fluorescence correlation spectroscopy

B1: dE-cad^WT::GFP (Drosophila E-cadherin, wild type, GFP-tagged) (natural protein)
chain: PGQSYAIIVRAYNVVPDPPQDAQIEVRIRVVESSIKPPSFVNPIDTPIYLKENLKNFTHPIATLRAVSNMPDKPEVIFELNTGRTEQTNSKNTFVFNQIGNEVTISLGKTLDYEAITDYTLTMIVRNTHELGTEHQIKIQVEDVNDNIPYYTEVKSGTILENEPPGTPVMQVRAFDMDGTSANNIVSFELADNREYFTIDPNTGNITALTTFDREERDFYNVKVIASDNSPSSLFDNGEPNRGHQVFRISIGDKNDHKPHFQQDKYLAERLLEDANTNTEVIEVKAEDEDNASQILYSIESGNVGDAFKIGLKTGKITVNQKLDYETITEYELKVRAFDGIYDDYTTVVIKIEDVNDNPPVFKQDYSVTILEETTYDDCILTVEAYDPDIKDRNADQHIVYSIHQNDGNRWTIDNSGCLRLVKTLDRDPPNGHKNWQVLIKANDEDGVGTTVSTVKEVTVTLKDINDNAPFLINEMPVYWQENRNPGHVVQLQANDYDDTPGAGNFTFGIDSEATPDIKTKFSMDGDYLHANVQFDREAQKEYFIPIRISDSGVPRQSAVSILHLVIGDVNDNAMSEGSSRIFIYNYKGEAPETDIGRVFVDDLDDWDLEDKYFEWKDLPHDQFRLNPSTGMITMLVHTAEGEYDLSFVVTEDSMFVPRHSVDAYVTVVVRELPEEAVDKSGSIRFINVTKEEFISVPRDFQSPDALSLKDRLQLSLAKLFNTSVSNVDVFTVLQNENHTLDVRFSAHGSPYYAPEKLNGIVAQNQQRLENELDLQMLMVNIDECLIEKFKCEESCTNELHKSSVPYMIYSNTTSFVGVNAFVQAQCVCEAPLMRRCLNGGSPRYGENDVCDCIDGFTGPHCELVSVAFYGSGYAFYEPIAACNNTKISLEITPQIDQGLIMYLGPLNFNPLLAISDFLALELDNGYPVLTVDYGSGAIRIRHQHIKMVADRTYQLDIILQRTSIEMTVDNCRLSTCQTLGAPIGPNEFLNVNAPLQLGGTPVDLEQLGRQLNWTHVPNQKGFFGCIRNLTINEQTYNLGMPSVFRNIDSGCQQSVAVAFSFGIDRNFIIAIIVCLALLLIILLAVVVQKKQKNGWHEKDIDDIRETIINYEDEGGGERDTDYDLNVLRTQPFYEEKLYKDPHALQGNMRDPNDIPDIADFLGDKKENCDRDVGATTVDDVRHYAYEGDGNSDGSLSSLASCTDDGDLNFDYLSNFGPRFRKLADMYGEEPSDTDSNVDDDQGWRI
  stoichiometry N: ~4
